Measurements from US6689567 (UNIVERSITY OF GUELPH, dated 2004).

Target: the molecule itself
Test: gel filtration on G100 Sephadex; self-association (homodimer)

B1: FlaA1 from Helicobacter pylori carrying a N-terminal hexahistidine tag (enzyme)
chain: MHHHHHHGSMSMPNHQNMLDNQTILITGGTGSFGKCFVRKVLDTTNAKKIIVYSRDELKQSEMAMEFNDPRMRFFIGDVRDLERLNYALEGVDICIHAAALKHVPIAEYNPLECIKTNIMGASNVINACLKNAISQVIALSTDKAANPINLYGATKLCSDKLFVSANNFKGSSQTQFSVVRYGNVVGSRGSVVPFFKKLVQNKASEIPITDIRMTRFWITLDEGVSFVLKSLKRMHGGEIFVPKIPSMKMTDLAKALAPNTPTKIIGIRPGEKLHEVMIPKDESHLALEFEDFFIIQPTISFQTPKDYTLTKLHEKGQKVAPDFEYSSHNNNQWLEPDDLLKLL
notes: Full-length FlaA1 with an N-terminal hexahistidine tag, overexpressed in E. coli (pET system) and purified; also called HP0840; His-FlaA1
binding result: binds
